Laboratory results taken from US5447852A, “DNA encoding cyclophilin C, and recombinant methods employing it” (The Board of Trustees of the Leland Stanford Junior …, priority 1993, dated 1995).

Experiments:
[1] = molecular target: cyp C:p77 complex (cyp C-GST fusion protein and 77Kd protein) (Mus musculus, UniProt P30412)
Procedure: (§1) FIG. 6. […] Control samples were incubated with 10 μg of GST. Experimental samples were incubated with 10 μg of cyp C-GST fusion protein plus the indicated drug concentration.
(§2) 10^7 TCA precipitable counts of labeled lysate were used per reaction. Reaction volumes were brought up to 1 ml in lysis buffer. Each reaction was precleared by incubation with 10 μg of glutathione-s-transferase (GST) and 100 μl of 50% glu-ag solution for 2 hours at 4° C. with gentle agitation. Reactions were spun 5 minutes in a microfuge at 4° C., and the pellets were discarded. To the precleared lysates, 10 μg of cyp C fusion protein was added, along with 30 μl of a 50% solution of glu-ag. Reactions were incubated at 4° with gentle agitation for 3-4 hours, at which time tubes were spun 5 minutes in a microfuge at 4° C., and the supernatants were removed. Glu-ag pellets were washed 4× with 1 ml of cold lysis buffer, being transferred to a fresh tube for the final wash. […], and the pellet was resuspended in 50- 100 μl of SDS-PAGE sample buffer containing β-mercaptoethanol. Samples were boiled 5 minutes and loaded onto 9.5% SDS-PAGE gels. Gels were stained/fixed in methanol: acetic acid: coomassie blue, and destained in methanol: acetic acid.

[2] = molecular target: T1, cyp C:CsA:p55 complex (cyp C-GST fusion protein and 55Kd protein) (Mus musculus, UniProt P30412); assay: Cyp C affinity reactions with 35S labeled cell lysate: 55Kd protein; assay type: binding, murine; details: AC 6 cells, 77Kd and 55Kd proteins (FIG. 5)
T1 construct: A portion of the cyp C cDNA encoding aa 16-212 was cloned into the bacterial expression vector pGEX 2T; made in house; host or cells: E. coli MC1061 (cyp C-GST); 55Kd protein from labelled AC 6 cell lysate
Procedure: as §1, §2

cyp A mRNA in AC 6 cells = assay: Northern analysis of cyp A mRNA in AC 6 cells; assay type: cell-based, murine; details: AC 6 cells (FIG. 3)
Procedure: Individual bacterial colonies containing phagemid vectors which had undergone two rounds of subtraction were cultured, and plasmid miniprep DNA was prepared from them by the NaOH/SDS, NaAcetate method. cDNA inserts were isolated by digestion of the plasmid DNA with Stu 1 and Hd III followed by low-melt agarose gel electrophoresis. Inserts were visualized by UV light and excised and purified by organic extraction and precipitation for use as templates for ^32 p probe synthesis. Purified inserts were labeled by random priming in the presence of 50 μCi [alpha-32P] dCTP (Amersham) and were purified by chromatography over a Sephadex G-50 column. AC 6MRNA prepared from IL-1 induced and uninduced cultures was electrophoresed on 1.0% formaldehyde-agarose gels using 0.5 μg RNA/lane as described (Sambrook, 1989). RNA was blotted onto nitrocellulose filters and prehybridized and hybridized in a solution containing 50% formamide, 6×SSC, 5×Denhardt's solution, 5 mM NaPO4, 100 ug/ml sheared, denatured salmon sperm DNA, and 50 ug/ml yeast tRNA. Labeled cDNA probe, prepared as described above, was hybridized for 16 hours at 45° C. […], followed by washing in 0.2×SSC plus 0.1% SDS at 65° C. for 30 minutes. Filters were then placed on film for autoradiographic visualization. […]

cyp C mRNA in AC 6 cells = assay: Northern analysis of cyp C mRNA in AC 6 cells; assay type: cell-based, murine
Procedure: Purified inserts were labeled by random priming in the presence of 50 μCi [alpha-32P] dCTP (Amersham) and were purified by chromatography over a Sephadex G-50 column. […] RNA was blotted onto nitrocellulose filters and prehybridized and hybridized in a solution containing 50% formamide, 6×SSC, 5×Denhardt's solution, 5 mM NaPO4, 100 ug/ml sheared, denatured salmon sperm DNA, and 50 ug/ml yeast tRNA. Labeled cDNA probe, prepared as described above, was hybridized for 16 hours at 45° C. for 30 minutes, followed by washing in 0.2×SSC plus 0.1% SDS at 65° C. for 30 minutes. Filters were then placed on film for autoradiographic visualization.
Twenty μg of total RNA from each source was run on a 1.2% agarose formaldehyde gel and blotted onto Genescreen (DuPont) membrane. Filters were hybridized as described above for 18 hours. The final wash conditions were 0.2×SSC, 0.1% SDS at 65° C. […] The autoradiograms presented in the Figure represent exposures of 3 days at -70° C. with an intensifying screen for both the cyp A and the cyp C probes.

[3] = molecular target: cyp C-GST fusion protein (glutathione-s-transferase fused to aa 16-212 of murine cyclophilin C), without CsA (murine)

Sequence of cyp C:p77 complex (cyp C-GST fusion protein and 77Kd protein) (P30412 with tags, fused parts or gaps limits assumed): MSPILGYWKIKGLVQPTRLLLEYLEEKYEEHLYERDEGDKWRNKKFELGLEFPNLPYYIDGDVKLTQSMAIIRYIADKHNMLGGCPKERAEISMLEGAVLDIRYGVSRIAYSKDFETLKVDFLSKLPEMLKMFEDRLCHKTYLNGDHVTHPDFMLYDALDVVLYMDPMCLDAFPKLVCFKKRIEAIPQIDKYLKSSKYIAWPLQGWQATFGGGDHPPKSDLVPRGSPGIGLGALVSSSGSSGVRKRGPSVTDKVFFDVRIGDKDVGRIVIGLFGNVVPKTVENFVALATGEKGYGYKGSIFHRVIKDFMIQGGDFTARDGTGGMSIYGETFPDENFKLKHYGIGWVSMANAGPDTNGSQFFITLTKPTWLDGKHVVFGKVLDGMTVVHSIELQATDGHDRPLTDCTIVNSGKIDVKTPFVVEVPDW
T1 sequence (P30412 with tags, fused parts or gaps limits assumed): as above

For `C=CC[C@@H]1/C=C(\C)C[C@H](C)C[C@H](OC)[C@H]2O[C@@](O)(C(=O)C(=O)N3CCCC[C@H]3C(=O)O[C@H](/C(C)=C/[C@@H]3CC[C@@H](O)[C@H](OC)C3)[C@H](C)[C@@H](O)CC1=O)[C@H](C)C[C@@H]2OC` [FK506], the “effect on the binding of cyp C to the 77Kd protein” value [1] was “no effect”.
With “IL-1: hematopoietic and inflammatory cytokine; unpurified recombinant human IL-1 alpha used for induction of AC 6 cells” the “effect of IL-1 in the culture media during metabolic labeling on the associating proteins” value [2] was “no obvious effect”, the “elevation of cyp A mRNA in response to IL-1” value (cyp A mRNA in AC 6 cells) was “elevated approximately three-fold” and the “elevation of cyp C mRNA in response to IL-1” value (cyp C mRNA in AC 6 cells; AC 6 cells (FIG. 3)) was “elevated approximately three-fold”. For the same compound, the “induction of cyp C message levels” value (cyp C mRNA in AC 6 cells; AC 6 stromal cell line treated with IL-1) was 2-3 fold.
With cyclosporin A (peptide) the CsA concentration that completely inhibits the isomerase activity of cyp C [3] was 2 µg/mL.
